Where a chain is given by its changes, count along the chain named.
T1: Human CEACAM5 (E398) (human, UniProt P06731 35-685, limits assumed)
T1 construct: also called hCEACAM5
T1 sequence: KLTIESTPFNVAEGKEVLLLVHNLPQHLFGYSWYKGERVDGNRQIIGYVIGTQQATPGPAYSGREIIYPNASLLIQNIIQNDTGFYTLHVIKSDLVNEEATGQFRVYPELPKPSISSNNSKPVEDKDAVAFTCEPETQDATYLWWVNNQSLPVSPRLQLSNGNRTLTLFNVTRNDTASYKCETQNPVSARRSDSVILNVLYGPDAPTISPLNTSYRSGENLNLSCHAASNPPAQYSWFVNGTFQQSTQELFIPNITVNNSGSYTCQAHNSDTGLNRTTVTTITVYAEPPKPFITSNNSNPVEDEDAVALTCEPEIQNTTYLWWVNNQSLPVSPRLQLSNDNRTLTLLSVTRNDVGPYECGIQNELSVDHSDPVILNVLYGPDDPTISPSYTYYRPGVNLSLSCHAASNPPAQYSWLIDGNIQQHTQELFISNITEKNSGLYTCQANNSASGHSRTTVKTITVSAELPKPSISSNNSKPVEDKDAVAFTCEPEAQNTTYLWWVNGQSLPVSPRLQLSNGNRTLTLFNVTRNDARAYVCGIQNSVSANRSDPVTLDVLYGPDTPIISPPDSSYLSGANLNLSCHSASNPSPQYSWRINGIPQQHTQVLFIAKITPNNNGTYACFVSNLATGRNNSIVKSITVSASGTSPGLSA

T2: Human CEACAM5 (K398) (human, UniProt P06731 35-685, limits assumed)
T2 construct: also called K398 allele
T2 sequence: T1 sequence with E364K

T3: Human CEACAM5 V83A (human, UniProt P06731 35-685, limits assumed)
T3 sequence: T1 sequence with V49A

T4: Human CEACAM5 I112V (human, UniProt P06731 35-685, limits assumed)
T4 sequence: T1 sequence with I78V

B1: AB0466 F3' CEACAM5 TriNKET (bispecific antibody, human IgG1, kappa)
chain: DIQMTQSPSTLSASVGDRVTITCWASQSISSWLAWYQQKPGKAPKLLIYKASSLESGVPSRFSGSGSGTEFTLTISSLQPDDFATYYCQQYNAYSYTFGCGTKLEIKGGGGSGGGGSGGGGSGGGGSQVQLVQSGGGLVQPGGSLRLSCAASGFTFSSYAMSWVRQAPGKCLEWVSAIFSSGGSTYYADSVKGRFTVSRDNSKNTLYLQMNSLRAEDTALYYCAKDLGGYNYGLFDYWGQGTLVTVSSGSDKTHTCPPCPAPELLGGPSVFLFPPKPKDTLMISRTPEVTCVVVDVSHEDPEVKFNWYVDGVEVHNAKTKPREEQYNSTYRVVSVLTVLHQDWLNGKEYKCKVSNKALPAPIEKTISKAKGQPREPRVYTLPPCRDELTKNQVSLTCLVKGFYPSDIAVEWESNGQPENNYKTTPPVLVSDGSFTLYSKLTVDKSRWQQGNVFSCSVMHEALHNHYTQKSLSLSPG
heavy: EVQLVESGGGLVKPGGSLRLSCAASGFTFSSYSMNWVRQAPGKGLEWVSSISSSSSYIYYADSVKGRFTISRDNAKNSLYLQMNSLRAEDTAVYYCARGAPIGAAAGWFDPWGQGTLVTVSSASTKGPSVFPLAPSSKSTSGGTAALGCLVKDYFPEPVTVSWNSGALTSGVHTFPAVLQSSGLYSLSSVVTVPSSSLGTQTYICNVNHKPSNTKVDKKVEPKSCDKTHTCPPCPAPELLGGPSVFLFPPKPKDTLMISRTPEVTCVVVDVSHEDPEVKFNWYVDGVEVHNAKTKPREEQYNSTYRVVSVLTVLHQDWLNGKEYKCKVSNKALPAPIEKTISKAKGQPREPQVCTLPPSRDELTENQVSLTCLVKGFYPSDIAVEWESNGQPENNYKTTPPVLDSDGSFFLYSWLTVDKSRWQQGNVFSCSVMHEALHNHYTQKSLSLSPG
light: DIQMTQSPSSVSASVGDRVTITCRASQGISSWLAWYQQKPGKAPKLLIYAASSLQSGVPSRFSGSGSGTDFTLTISSLQPEDFATYYCQQGVSFPRTFGGGTKVEIKRTVAAPSVFIFPPSDEQLKSGTASVVCLLNNFYPREAKVQWKVDNALQSGNSQESVTEQDSKDSTYSLSSTLTLSKADYEKHKVYACEVTHQGLSSPVTKSFNRGEC
B2: AB0621 F3' CEACAM5 TriNKET (bispecific antibody, human IgG1, kappa)
chain: DIVMTQSPDSLAVSLGERATINCKSSHSLLYGNFQNNYLAWYQQKPGQPPKLLIYWASTRESGVPDRFSGSGSGTDFTLTISSLQAEDVAVYYCQQYYSYPYTFGCGTKLEIKGGGGSGGGGSGGGGSGGGGSQVQLVQSGAEVKKPGASVKVSCKASGYTFTAYTIHWVRQAPGQCLEWMGYINPSSGYTEYNQKFKDRTTLTADTSISTAYMELSRLRSDDTAVYYCTREGGLLWFDYWGQGTLVTVSSGSDKTHTCPPCPAPELLGGPSVFLFPPKPKDTLMISRTPEVTCVVVDVSHEDPEVKFNWYVDGVEVHNAKTKPREEQYNSTYRVVSVLTVLHQDWLNGKEYKCKVSNKALPAPIEKTISKAKGQPREPRVYTLPPCRDELTKNQVSLTCLVKGFYPSDIAVEWESNGQPENNYKTTPPVLVSDGSFTLYSKLTVDKSRWQQGNVFSCSVMHEALHNHYTQKSLSLSPG
heavy: B1 heavy
light: B1 light
B3: AB0411 F3' CEACAM5 TriNKET (bispecific antibody, human IgG1, kappa)
chain: DIQLTQSPATLSVSPGERATLSCRASQSVSSSYLAWYQQKPGQAPRLLIYGASSRATGIPDRFSGSGSGTDFTLTISRLEPEDFAVYYCQQYNNWPLTFGCGTKVEIKGGGGSGGGGSGGGGSGGGGSQVQLVQSGGGLVQPGGSLRLSCAASGFTFTSYAMSWVRQAPGKCLEWVSAISGTGDSTFYADSVKGRFTFSRDNSKNTLYLQMNSLRAEDTAVYYCAKDLGWLQYGLFDYWGQGTLVTVSSGSDKTHTCPPCPAPELLGGPSVFLFPPKPKDTLMISRTPEVTCVVVDVSHEDPEVKFNWYVDGVEVHNAKTKPREEQYNSTYRVVSVLTVLHQDWLNGKEYKCKVSNKALPAPIEKTISKAKGQPREPRVYTLPPCRDELTKNQVSLTCLVKGFYPSDIAVEWESNGQPENNYKTTPPVLVSDGSFTLYSKLTVDKSRWQQGNVFSCSVMHEALHNHYTQKSLSLSPG
heavy: B1 heavy
light: B1 light

Molecular target: T1, Human CEACAM5 (E398)
Test: SPR, 37C, pH 7.4; reference E398

Binder | KD/KD(Ref) [fold]
B1 | 1
B2 | 1
B3 | 1

Molecular target: T2, Human CEACAM5 (K398)
Test: SPR, 37C, pH 7.4; reference E398

Binder | KD/KD(Ref) [fold]
B1 | 0.9
B2 | 1.1
B3 | 0.9

Molecular target: T3, Human CEACAM5 V83A
Test: SPR, 37C, pH 7.4; reference E398

Binder | KD/KD(Ref) [fold]
B1 | 9.3
B2 | 2
B3 | 4.9

Molecular target: T4, Human CEACAM5 I112V
Test: SPR, 37C, pH 7.4; reference E398

Binder | KD/KD(Ref) [fold]
B1 | 1.6
B2 | 2.3
B3 | 1.2

From patent publication US20240124607A1 (Merck Sharp & Dohme, published 2024)
